Measured values published in publication doi:10.1101/2022.12.05.519077.

Target: Kcnj13 (Kir7.1) from D. rerio fused to mCherry, with N-terminal His-tags (D. rerio)
Experiment: mass photometry

stoichiometry N: 4
Substance: Kcnj13 (Kir7.1) from D. rerio fused to mCherry, with N-terminal His-tags (natural protein)
